Results as given in paper doi:10.1101/130245 (bioRxiv, 2017).
Where “and” joins values, the source holds several entries; their conditions need not be identical. Equal entries are not always repeated.

Experiments:
SEC = biological target: the molecule itself; assay: SEC
crystal structure = biological target: the molecule itself; assay: crystal structure

| Protein | stoichiometry N (SEC) | binding result (crystal structure) |
| --- | --- | --- |
| untagged C-terminally truncated human 14-3-3σ (14-3-3σΔC: residues 1-231) (domain or fragment) MERASLIQKAKLAEQAERYEDMAAFMKGAVEKGEELSCEERNLLSVAYKNVVGGQRAAWRVLSSIEQKSNEEGSEEKGPEVREYREKVETELQGVCDTVLGLLDSHLIKEAGDAESRVFYLKMKGDYYRYLAEVATGDDKKRIIDSARSAYQEAMDISKKEMPPTNPIRLGLALNFSVFHYEIANSPEEAISLAKTTFDEAMADLHTLSEDSYKDSTLIMQLLRDNLTLWT | 2 | – |
| 14-3-3/HSPB6 protein-phosphopeptide chimera CH1 (14-3-3σΔC Clu3 fused through a GSGS linker to the HSPB6 phosphopeptide) (other, phosphoserine at the Ser that is Ser16 of HSPB6 (RRApSAPL)) GPHMERASLIQKAKLAEQAERYEDMAAFMKGAVEKGEELSCEERNLLSVAYKNVVGGQRAAWRVLSSIEQKSNEEGSAAAGPEVREYREKVETELQGVCDTVLGLLDSHLIKEAGDAESRVFYLKMKGDYYRYLAEVATGDDKKRIIDSARSAYQEAMDISKKEMPPTNPIRLGLALNFSVFHYEIANSPEEAISLAKTTFDEAMADLHTLSEDSYKDSTLIMQLLRDNLTLWTGSGSLRRASAPL | 2 and 4 | – |
| chimera CH2 of 14-3-3σΔC Clu3 with the Gli phosphopeptide (other, phosphoserine at the Ser that is Ser640 of Gli (RRApSDPAQA)) GPHMERASLIQKAKLAEQAERYEDMAAFMKGAVEKGEELSCEERNLLSVAYKNVVGGQRAAWRVLSSIEQKSNEEGSAAAGPEVREYREKVETELQGVCDTVLGLLDSHLIKEAGDAESRVFYLKMKGDYYRYLAEVATGDDKKRIIDSARSAYQEAMDISKKEMPPTNPIRLGLALNFSVFHYEIANSPEEAISLAKTTFDEAMADLHTLSEDSYKDSTLIMQLLRDNLTLWTGSGSLRRASDPAQA | – | binds |
